In the Immune Epitope Database (IEDB):
Blank lines part the entries; values can stand above or below the sequence they belong to.

Key:
[1] = target: HLA-B*07:02; experiment: IEDB peptide-MHC binding, purified MHC/competitive/radioactivity; filed as Kd, often an IC50 or EC50 that approximates it; ≥ and ≤ were set here for values at or beyond the usual limits of such assays
[2] = target: HLA-B*35:01; experiment: as above
[3] = target: HLA-B*51:01; experiment: as above
[4] = target: HLA-B*53:01; experiment: as above
[5] = target: HLA-B*54:01; experiment: as above
[6] = target: HLA-A*02:01; experiment: as above
[7] = target: HLA-A*02:02; experiment: as above
[8] = target: HLA-A*02:03; experiment: as above
[9] = target: HLA-A*68:02; experiment: as above
[10] = target: HLA-A*03:01; experiment: IEDB peptide-MHC binding, purified MHC/competitive/fluorescence; filed as Kd, often an IC50 or EC50 that approximates it; ≥ and ≤ were set here for values at or beyond the usual limits of such assays; details: source organism: Yersinia pestis Antiqua
[11] = target: HLA-B*18:01; experiment: IEDB peptide-MHC binding, purified MHC/direct/fluorescence; filed as Kd, often an IC50 or EC50 that approximates it; ≥ and ≤ were set here for values at or beyond the usual limits of such assays
[12] = target: HLA-B*40:01; experiment: as above; details: source organism: Orthohantavirus andesense
[13] = target: HLA-B*44:02; experiment: as above; details: source organism: Orthohantavirus andesense
[14] = target: HLA-A*01:01; experiment: IEDB peptide-MHC binding, purified MHC/competitive/radioactivity; filed as Kd, often an IC50 or EC50 that approximates it; ≥ and ≤ were set here for values at or beyond the usual limits of such assays; details: source organism: Hepacivirus hominis
[15] = target: HLA-A*02:06; experiment: as above
[16] = target: HLA-A*03:01; experiment: as above; details: source organism: Hepacivirus hominis
[17] = target: HLA-A*11:01; experiment: as above; details: source organism: Hepacivirus hominis
[18] = target: HLA-A*31:01; experiment: as above; details: source organism: Hepacivirus hominis
[19] = target: HLA-A*33:01; experiment: as above; details: source organism: Hepacivirus hominis
[20] = target: HLA-A*68:01; experiment: as above; details: source organism: Hepacivirus hominis
[21] = target: HLA-B*08:01; experiment: as above; details: source organism: Hepacivirus hominis
[22] = target: HLA-B*18:01; experiment: as above; details: source organism: Hepacivirus hominis
[23] = target: HLA-B*40:01; experiment: as above; details: source organism: Hepacivirus hominis
[24] = target: HLA-B*40:02; experiment: as above; details: source organism: Hepacivirus hominis
[25] = target: HLA-B*44:02; experiment: as above; details: source organism: Hepacivirus hominis
[26] = target: HLA-B*44:03; experiment: as above; details: source organism: Hepacivirus hominis
[27] = source organism: Vaccinia virus WR
[28] = source organism: Hepacivirus hominis
[29] = source organism: Mammarenavirus lassaense
[30] = source organism: Human alphaherpesvirus 2
[31] = source organism: Lassa virus Josiah
[32] = source organism: SARS coronavirus Tor2
[33] = source organism: Trypanosoma cruzi

Sequence: CPQKKKSQA
- Kd [1, 27]: 0.105 µM
- Kd [2, 27]: ≥ 77.4 µM
- Kd [3, 27]: ≥ 77.5 µM
- Kd [4, 27]: ≥ 78.2 µM
- Kd [5, 27]: 0.0667 µM

Sequence: LPNVQFVDI
- Kd [1, 27]: 2.71 µM
- Kd [2, 27]: 0.234 µM
- Kd [3, 27]: 0.0322 µM
- Kd [4, 27]: 0.0652 µM
- Kd [5, 27]: 0.0168 µM

Sequence: IPEISSNDNA
- Kd [1, 27]: ≥ 69.6 µM
- Kd [2, 27]: ≥ 69.9 µM
- Kd [3, 27]: ≥ 69.6 µM
- Kd [4, 27]: 2.39 µM
- Kd [5, 27]: 4.54 µM

- Kd ([6]; source organism: Homo sapiens): 0.232 µM
Sequence: GSFGDIYLA

- Kd ([6]; source organism: Homo sapiens): 0.078 µM
- Kd ([7]; source organism: Homo sapiens): 0.00463 µM
- Kd ([8]; source organism: Homo sapiens): 0.0163 µM
- Kd ([9]; source organism: Homo sapiens): 7.62 µM
Sequence: QLYKEQLAKL

Sequence: ALTSAMLDR
- Kd [10]: 0.0381 µM

Sequence: YEGDLRVTF
- Kd ([11]; source organism: Orthohantavirus andesense): ≤ 0.001 µM
- Kd [12]: 0.0083 µM
- Kd [13]: 4.3 µM

Sequence: RDWAHNSL
- Kd [14]: 1.8 µM
- Kd [6, 28]: ≥ 69.4 µM
- Kd [7, 28]: ≥ 70 µM
- Kd [8, 28]: ≥ 70.4 µM
- Kd [15, 28]: ≥ 55.7 µM
- Kd [16]: ≥ 87.3 µM
- Kd [17]: ≥ 87 µM
- Kd [18]: ≥ 67.1 µM
- Kd [19]: ≥ 78.4 µM
- Kd [20]: ≥ 87.9 µM
- Kd [9, 28]: ≥ 69.8 µM
- Kd [1, 28]: 5.68 µM
- Kd [21]: ≥ 83.4 µM
- Kd [22]: ≥ 88.6 µM
- Kd [2, 28]: ≥ 87.8 µM
- Kd [23]: ≥ 88.9 µM
- Kd [24]: ≥ 89.5 µM
- Kd [25]: ≥ 75.4 µM
- Kd [26]: ≥ 87.2 µM
- Kd [3, 28]: ≥ 87.3 µM
- Kd [4, 28]: ≥ 87.7 µM
- Kd [5, 28]: ≥ 87.7 µM

Sequence: CPFLFLTVL
- Kd [1, 29]: 0.0995 µM
- Kd [2, 29]: 0.0412 µM
- Kd [3, 29]: 0.746 µM
- Kd [4, 29]: 0.216 µM
- Kd [5, 29]: 0.16 µM

Sequence: DPLVIPFSF
- Kd ([11]; source organism: Salmonella enterica subsp. enterica serovar Paratyphi A str. ATCC 9150): 3.13 µM

- Kd ([6]; source organism: Homo sapiens): 1 µM
Sequence: GIGILTVIL

Sequence: APAWSRRTL
- Kd [1, 30]: 0.00019 µM
- Kd [2, 30]: 3.24 µM
- Kd [3, 30]: ≥ 59.5 µM
- Kd [4, 30]: 3.55 µM
- Kd [5, 30]: 5.56 µM

Sequence: SILRVGTLT
- Kd [6, 31]: ≥ 25 µM

Sequence: VPWSKILAY
- Kd [1, 32]: 0.447 µM
- Kd [2, 32]: 0.00822 µM
- Kd [3, 32]: 0.0905 µM
- Kd [4, 32]: 0.00708 µM
- Kd [5, 32]: 0.536 µM

Sequence: GVLPLLLLYS
- Kd [6, 33]: 2.37 µM
- Kd [7, 33]: 1.3 µM
- Kd [8, 33]: 0.673 µM
- Kd [15, 33]: 0.0149 µM
- Kd [9, 33]: 3.56 µM

Sequence: AVSGGLNTSV
- Kd [6, 31]: ≥ 25 µM

Sequence: MPKDGLKVL
- Kd [1, 29]: 0.802 µM
- Kd [2, 29]: 0.421 µM
- Kd [3, 29]: 6.53 µM
- Kd [4, 29]: 2.32 µM
- Kd [5, 29]: 0.0965 µM
